Earlier results on 1 substance are cited in article PMC3253530.

For series [1], the target named is LRP-1 (Homo sapiens) (UniProt Q07954).
In series [2] the target is PTPζ (Homo sapiens) (UniProt P23471).
The target is the same in series [3]. The source holds these as a separate data set.

Where two headings read alike, the source gives them in different places.

Sequence of UniProt P23471 (P23471 25-1636): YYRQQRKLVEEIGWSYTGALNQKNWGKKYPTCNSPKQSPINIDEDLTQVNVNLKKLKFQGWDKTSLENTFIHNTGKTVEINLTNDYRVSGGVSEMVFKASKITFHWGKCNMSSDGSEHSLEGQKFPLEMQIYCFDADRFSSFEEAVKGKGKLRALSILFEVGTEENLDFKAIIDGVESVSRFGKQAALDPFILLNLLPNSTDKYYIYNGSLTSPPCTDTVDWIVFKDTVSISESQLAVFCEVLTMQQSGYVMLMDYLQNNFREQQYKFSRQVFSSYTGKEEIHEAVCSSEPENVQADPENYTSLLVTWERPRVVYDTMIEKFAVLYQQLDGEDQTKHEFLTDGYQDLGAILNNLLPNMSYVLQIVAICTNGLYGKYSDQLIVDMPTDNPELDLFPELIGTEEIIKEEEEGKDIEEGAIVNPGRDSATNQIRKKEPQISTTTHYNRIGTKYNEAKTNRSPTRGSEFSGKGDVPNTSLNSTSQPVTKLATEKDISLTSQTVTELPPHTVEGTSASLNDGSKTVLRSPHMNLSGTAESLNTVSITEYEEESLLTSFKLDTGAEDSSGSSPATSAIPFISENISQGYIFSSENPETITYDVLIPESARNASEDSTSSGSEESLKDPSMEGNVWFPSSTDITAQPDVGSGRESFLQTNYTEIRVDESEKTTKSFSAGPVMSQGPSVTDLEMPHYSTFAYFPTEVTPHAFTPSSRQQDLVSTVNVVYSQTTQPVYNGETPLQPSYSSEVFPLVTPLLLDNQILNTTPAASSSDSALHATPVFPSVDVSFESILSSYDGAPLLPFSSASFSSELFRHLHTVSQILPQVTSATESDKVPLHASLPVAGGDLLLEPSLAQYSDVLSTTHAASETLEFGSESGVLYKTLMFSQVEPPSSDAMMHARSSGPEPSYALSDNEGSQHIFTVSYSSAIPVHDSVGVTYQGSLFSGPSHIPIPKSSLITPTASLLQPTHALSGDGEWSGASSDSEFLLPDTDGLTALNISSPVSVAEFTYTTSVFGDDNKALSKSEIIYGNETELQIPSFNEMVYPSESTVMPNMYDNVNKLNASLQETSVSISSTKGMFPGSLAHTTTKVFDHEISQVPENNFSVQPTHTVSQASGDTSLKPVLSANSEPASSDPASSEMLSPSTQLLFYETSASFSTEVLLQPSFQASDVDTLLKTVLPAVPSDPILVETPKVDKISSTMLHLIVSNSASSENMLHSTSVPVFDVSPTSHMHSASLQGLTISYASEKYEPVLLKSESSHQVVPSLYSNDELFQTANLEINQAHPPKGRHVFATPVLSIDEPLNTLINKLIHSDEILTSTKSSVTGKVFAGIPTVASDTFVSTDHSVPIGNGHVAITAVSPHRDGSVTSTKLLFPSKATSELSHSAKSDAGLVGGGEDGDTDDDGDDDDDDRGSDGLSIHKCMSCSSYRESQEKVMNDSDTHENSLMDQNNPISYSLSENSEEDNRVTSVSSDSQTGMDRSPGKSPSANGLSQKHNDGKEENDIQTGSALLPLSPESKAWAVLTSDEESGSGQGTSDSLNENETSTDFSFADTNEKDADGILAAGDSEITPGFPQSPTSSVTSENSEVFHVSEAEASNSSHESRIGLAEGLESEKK

For the substance Midkine (from UniProt P21741), the Kd – broadly, the concentration at which binding is half-saturated – was 3.5 nM in series [1], 0.56 nM in series [2] and 8.8 nM in series [3].
